Source: US20250339531A1, “DUX4 POLYPEPTIDES AND NUCLEIC ACIDS FOR TREATING INFLAMMATORY AND AUTOIMMUNE CONDITIONS” (Fred Hutchinson Cancer Center, priority 2021, published 2025)

What was measured:
Assay in all cases: anti-FLAG co-IP LC-MS, exp 3, +Dox
[1] = biological target: 60S ribosomal protein L4 (Homo sapiens) (UniProt P36578)
[2] = biological target: 40S ribosomal protein S8 (Homo sapiens) (UniProt P62241)
[3] = biological target: 40S ribosomal protein S14 (Homo sapiens) (UniProt P62263)
[4] = biological target: Probable ATP-dependent RNA helicase DDX6 (Homo sapiens) (UniProt P26196)
Sequence of Probable ATP-dependent RNA helicase DDX6 (Homo sapiens) (P26196 whole entry): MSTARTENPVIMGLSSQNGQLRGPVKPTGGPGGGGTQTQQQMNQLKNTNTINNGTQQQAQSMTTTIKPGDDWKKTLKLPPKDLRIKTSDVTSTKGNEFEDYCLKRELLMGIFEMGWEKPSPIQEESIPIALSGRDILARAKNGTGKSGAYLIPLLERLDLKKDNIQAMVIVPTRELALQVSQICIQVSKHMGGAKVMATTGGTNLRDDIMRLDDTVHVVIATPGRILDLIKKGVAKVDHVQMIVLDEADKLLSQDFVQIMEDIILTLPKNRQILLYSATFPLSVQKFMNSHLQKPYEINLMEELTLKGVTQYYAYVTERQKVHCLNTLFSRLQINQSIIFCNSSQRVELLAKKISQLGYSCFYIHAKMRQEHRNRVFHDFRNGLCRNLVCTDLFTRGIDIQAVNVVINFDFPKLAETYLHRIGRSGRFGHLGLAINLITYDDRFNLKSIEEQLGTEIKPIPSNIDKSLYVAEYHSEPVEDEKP

[5] = biological target: Elongation factor 1-gamma (Homo sapiens) (UniProt P26641)
[6] = biological target: Vimentin (Homo sapiens) (UniProt P08670)
Sequence of Vimentin (Homo sapiens) (P08670 2-466 limits assumed): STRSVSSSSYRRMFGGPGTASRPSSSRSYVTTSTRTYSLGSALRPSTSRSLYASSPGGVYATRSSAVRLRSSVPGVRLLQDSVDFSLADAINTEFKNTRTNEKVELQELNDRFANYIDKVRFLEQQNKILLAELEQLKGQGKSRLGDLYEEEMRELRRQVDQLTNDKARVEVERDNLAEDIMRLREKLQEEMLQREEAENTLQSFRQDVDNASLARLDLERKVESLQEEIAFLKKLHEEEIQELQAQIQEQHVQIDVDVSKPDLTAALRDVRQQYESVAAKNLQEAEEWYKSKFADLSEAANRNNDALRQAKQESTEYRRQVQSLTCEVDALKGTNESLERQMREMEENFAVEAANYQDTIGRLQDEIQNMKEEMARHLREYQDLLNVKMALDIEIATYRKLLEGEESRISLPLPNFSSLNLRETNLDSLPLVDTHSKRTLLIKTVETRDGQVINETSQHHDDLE

[7] = biological target: Tubulin beta-4B chain (Homo sapiens) (UniProt P68371)
[8] = biological target: Drebrin (Homo sapiens) (UniProt Q16643)
[9] = biological target: Tubulin beta chain (Homo sapiens) (UniProt P07437)
[10] = biological target: Cytoskeleton-associated protein 4 (Homo sapiens) (UniProt Q07065)
[11] = biological target: AP-2 complex subunit alpha-1 (Homo sapiens) (UniProt O95782)
[12] = biological target: Tubulin beta-2A chain (Homo sapiens) (UniProt Q13885)
[13] = biological target: Caprin-1 (Homo sapiens) (UniProt Q14444)
[14] = biological target: Desmin (Homo sapiens) (UniProt P17661)
[15] = biological target: KN motif and ankyrin repeat domain-containing protein 2 (Homo sapiens) (UniProt Q63ZY3)
Sequence of KN motif and ankyrin repeat domain-containing protein 2 (Homo sapiens) (Q63ZY3 whole entry, the tested form may be a part): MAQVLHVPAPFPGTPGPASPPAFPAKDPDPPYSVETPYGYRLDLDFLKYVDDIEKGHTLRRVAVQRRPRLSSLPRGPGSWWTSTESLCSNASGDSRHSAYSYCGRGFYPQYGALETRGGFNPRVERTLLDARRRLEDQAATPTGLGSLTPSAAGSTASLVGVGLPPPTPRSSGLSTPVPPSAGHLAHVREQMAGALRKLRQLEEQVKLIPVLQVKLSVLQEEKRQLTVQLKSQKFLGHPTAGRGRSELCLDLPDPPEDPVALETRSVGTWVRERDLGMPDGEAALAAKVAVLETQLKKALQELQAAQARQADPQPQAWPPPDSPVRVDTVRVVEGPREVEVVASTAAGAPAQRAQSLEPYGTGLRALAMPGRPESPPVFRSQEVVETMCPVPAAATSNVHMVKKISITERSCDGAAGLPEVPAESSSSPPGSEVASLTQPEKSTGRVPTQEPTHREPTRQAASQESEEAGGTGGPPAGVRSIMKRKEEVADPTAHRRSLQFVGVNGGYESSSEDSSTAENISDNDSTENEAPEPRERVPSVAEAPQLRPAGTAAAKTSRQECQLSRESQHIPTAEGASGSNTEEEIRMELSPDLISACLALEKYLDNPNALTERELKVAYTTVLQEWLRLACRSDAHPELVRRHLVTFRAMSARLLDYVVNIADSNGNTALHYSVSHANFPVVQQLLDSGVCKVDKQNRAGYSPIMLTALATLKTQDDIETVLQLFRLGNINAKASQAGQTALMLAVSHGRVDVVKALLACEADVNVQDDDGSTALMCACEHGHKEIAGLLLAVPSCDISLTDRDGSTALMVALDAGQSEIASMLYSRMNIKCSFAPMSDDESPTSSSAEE

[16] = biological target: Tubulin alpha-1B chain (Homo sapiens) (UniProt P68363)
[17] = biological target: Heterogeneous nuclear ribonucleoprotein K (Homo sapiens) (UniProt P61978)
[18] = biological target: Endoplasmic reticulum chaperone BiP (Homo sapiens) (UniProt P11021)
[19] = biological target: Heat shock protein HSP 90-beta (Homo sapiens) (UniProt P08238)
Sequence of Heat shock protein HSP 90-beta (Homo sapiens) (P08238 2-724 limits assumed): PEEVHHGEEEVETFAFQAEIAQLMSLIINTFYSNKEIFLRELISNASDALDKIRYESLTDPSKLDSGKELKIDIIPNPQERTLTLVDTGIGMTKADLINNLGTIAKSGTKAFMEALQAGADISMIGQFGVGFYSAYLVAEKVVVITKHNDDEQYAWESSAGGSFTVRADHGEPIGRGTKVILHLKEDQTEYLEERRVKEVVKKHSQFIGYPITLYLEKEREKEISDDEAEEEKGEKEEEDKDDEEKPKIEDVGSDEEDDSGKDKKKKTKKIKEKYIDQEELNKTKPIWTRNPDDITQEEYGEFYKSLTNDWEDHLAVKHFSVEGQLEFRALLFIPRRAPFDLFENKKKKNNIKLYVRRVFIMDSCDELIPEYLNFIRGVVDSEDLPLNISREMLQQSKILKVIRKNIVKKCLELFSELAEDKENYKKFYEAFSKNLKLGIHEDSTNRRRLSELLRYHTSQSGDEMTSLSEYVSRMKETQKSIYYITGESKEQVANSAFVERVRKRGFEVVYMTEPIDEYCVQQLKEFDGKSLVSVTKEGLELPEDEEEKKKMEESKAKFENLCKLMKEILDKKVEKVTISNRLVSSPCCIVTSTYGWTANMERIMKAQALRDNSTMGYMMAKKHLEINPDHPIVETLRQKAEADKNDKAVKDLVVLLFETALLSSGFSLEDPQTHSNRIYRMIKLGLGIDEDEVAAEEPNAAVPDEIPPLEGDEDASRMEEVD

[20] = biological target: Neuroblast differentiation-associated protein AHNAK (Homo sapiens) (UniProt Q09666)
[21] = biological target: Prolyl 4-hydroxylase subunit alpha-1 (Homo sapiens) (UniProt P13674)
Sequence of Prolyl 4-hydroxylase subunit alpha-1 (Homo sapiens) (P13674 18-534 limits assumed): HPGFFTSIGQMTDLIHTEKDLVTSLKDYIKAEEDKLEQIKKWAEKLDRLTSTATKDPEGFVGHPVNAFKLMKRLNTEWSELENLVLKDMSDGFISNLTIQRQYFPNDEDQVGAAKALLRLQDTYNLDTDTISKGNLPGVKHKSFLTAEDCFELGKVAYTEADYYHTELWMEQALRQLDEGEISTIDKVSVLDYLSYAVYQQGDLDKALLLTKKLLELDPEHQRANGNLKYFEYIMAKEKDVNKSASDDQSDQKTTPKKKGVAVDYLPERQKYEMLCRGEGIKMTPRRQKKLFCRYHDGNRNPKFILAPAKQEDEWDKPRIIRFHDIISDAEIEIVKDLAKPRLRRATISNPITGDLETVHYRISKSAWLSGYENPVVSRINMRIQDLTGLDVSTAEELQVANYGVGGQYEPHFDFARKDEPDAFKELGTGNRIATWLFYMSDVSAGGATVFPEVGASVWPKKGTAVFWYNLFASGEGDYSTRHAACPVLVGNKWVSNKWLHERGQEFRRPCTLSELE

[22] = biological target: Elongation factor 1-alpha 1 (Homo sapiens) (UniProt P68104)
[23] = biological target: Plectin (Homo sapiens) (UniProt Q15149)
[24] = biological target: Ribonuclease inhibitor (Homo sapiens) (UniProt P13489)
[25] = biological target: Tubulin alpha-4A chain (Homo sapiens) (UniProt P68366)
Sequence of Tubulin alpha-4A chain (Homo sapiens) (P68366 whole entry): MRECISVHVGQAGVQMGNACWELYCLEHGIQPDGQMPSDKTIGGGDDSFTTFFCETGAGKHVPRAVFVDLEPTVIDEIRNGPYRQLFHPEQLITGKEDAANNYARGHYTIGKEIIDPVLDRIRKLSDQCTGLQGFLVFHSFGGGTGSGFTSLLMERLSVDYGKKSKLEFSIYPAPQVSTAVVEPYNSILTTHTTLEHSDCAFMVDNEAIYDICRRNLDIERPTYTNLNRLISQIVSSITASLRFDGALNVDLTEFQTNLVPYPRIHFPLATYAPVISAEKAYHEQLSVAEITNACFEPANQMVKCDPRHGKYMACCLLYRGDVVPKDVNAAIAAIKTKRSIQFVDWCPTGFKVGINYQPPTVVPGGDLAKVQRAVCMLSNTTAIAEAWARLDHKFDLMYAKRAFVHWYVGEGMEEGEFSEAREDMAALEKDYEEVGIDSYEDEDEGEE

[26] = biological target: Alpha-actinin-4 (Homo sapiens) (UniProt O43707)
[27] = biological target: Nucleophosmin (Homo sapiens) (UniProt P06748)
[28] = biological target: Serine/threonine-protein phosphatase 2A 65 kDa regulatory subunit A alpha isoform (Homo sapiens) (UniProt P30153)
[29] = biological target: Actin-related protein 3 (Homo sapiens) (UniProt P61158)
[30] = biological target: Myosin-9 (Homo sapiens) (UniProt P35579)
[31] = biological target: Filamin-C (Homo sapiens) (UniProt Q14315)
[32] = biological target: 60S ribosomal protein L13 (Homo sapiens) (UniProt P26373)
[33] = biological target: Fibronectin (Homo sapiens) (UniProt P02751)
[34] = biological target: 40S ribosomal protein S3a (Homo sapiens) (UniProt P61247)
[35] = biological target: Plasminogen activator inhibitor 1 RNA-binding protein (Homo sapiens) (UniProt Q8NC51)
Sequence of Plasminogen activator inhibitor 1 RNA-binding protein (Homo sapiens) (Q8NC51 2-408 limits assumed): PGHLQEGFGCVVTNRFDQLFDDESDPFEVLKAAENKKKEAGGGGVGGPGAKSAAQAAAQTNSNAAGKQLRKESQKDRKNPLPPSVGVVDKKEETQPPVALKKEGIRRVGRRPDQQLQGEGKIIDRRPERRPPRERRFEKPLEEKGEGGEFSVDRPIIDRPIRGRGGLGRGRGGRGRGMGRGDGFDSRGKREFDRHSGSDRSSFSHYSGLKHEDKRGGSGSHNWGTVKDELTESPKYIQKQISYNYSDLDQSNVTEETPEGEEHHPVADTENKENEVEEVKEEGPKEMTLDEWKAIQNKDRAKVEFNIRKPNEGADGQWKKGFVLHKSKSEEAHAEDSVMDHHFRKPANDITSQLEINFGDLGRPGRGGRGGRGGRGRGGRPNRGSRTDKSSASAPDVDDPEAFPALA

[36] = biological target: 60S ribosomal protein L3 (Homo sapiens) (UniProt P39023)
[37] = biological target: Neutral cholesterol ester hydrolase 1 (Homo sapiens) (UniProt Q6PIU2)
Sequence of Neutral cholesterol ester hydrolase 1 (Homo sapiens) (Q6PIU2 whole entry): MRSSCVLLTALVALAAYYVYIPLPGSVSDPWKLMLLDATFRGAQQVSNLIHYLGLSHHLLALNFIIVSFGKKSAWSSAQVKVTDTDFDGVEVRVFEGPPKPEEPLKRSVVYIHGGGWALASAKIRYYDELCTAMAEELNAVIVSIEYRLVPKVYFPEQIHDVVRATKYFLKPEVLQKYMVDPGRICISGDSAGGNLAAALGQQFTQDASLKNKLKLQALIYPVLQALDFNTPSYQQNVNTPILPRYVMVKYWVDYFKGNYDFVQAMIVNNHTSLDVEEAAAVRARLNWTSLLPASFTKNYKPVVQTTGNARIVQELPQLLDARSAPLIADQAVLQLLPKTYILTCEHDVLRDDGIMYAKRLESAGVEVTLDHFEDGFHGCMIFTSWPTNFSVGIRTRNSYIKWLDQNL

[38] = biological target: Ribosome-binding protein 1 (Homo sapiens) (UniProt Q9P2E9)
[39] = biological target: S-adenosylhomocysteine hydrolase-like protein 1 (Homo sapiens) (UniProt O43865)
[40] = biological target: Protein disulfide-isomerase (Homo sapiens) (UniProt P07237)
Sequence of Protein disulfide-isomerase (Homo sapiens) (P07237 18-508 limits assumed): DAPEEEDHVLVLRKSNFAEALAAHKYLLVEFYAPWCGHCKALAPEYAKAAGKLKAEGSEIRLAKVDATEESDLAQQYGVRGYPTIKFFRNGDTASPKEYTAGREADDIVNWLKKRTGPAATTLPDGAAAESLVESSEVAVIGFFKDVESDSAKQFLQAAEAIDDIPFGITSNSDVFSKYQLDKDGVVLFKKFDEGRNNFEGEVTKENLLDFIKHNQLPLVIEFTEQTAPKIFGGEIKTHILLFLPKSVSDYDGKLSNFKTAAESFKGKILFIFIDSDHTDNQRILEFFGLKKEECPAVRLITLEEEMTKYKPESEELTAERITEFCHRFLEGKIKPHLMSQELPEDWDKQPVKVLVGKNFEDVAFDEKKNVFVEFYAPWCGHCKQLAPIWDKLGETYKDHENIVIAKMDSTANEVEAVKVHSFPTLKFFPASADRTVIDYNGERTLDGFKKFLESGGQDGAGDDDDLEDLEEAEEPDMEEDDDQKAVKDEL

## i3XFLAG-NLS-CTDaa154-424
[1]
  PSMs: 10 PSMs
[2]
  PSMs: 2 PSMs
[3]
  PSMs: 2 PSMs
[4]
  PSMs: 2 PSMs
[5]
  PSMs: 3 PSMs
[6]
  PSMs: 42 PSMs
[7]
  PSMs: 42 PSMs
[8]
  PSMs: 3 PSMs
[9]
  PSMs: 41 PSMs
[10]
  PSMs: 30 PSMs
[11]
  PSMs: 10 PSMs
[12]
  PSMs: 35 PSMs
[13]
  PSMs: 5 PSMs
[14]
  PSMs: 9 PSMs
[15]
  PSMs: 3 PSMs
[16]
  PSMs: 22 PSMs
[17]
  PSMs: 2 PSMs
[18]
  PSMs: 22 PSMs
[19]
  PSMs: 2 PSMs
[20]
  PSMs: 8 PSMs
[21]
  PSMs: 3 PSMs
[22]
  PSMs: 9 PSMs
[23]
  PSMs: 5 PSMs
[24]
  PSMs: 3 PSMs
[25]
  PSMs: 14 PSMs
[26]
  PSMs: 2 PSMs
[27]
  PSMs: 2 PSMs
[28]
  PSMs: 5 PSMs
[29]
  PSMs: 5 PSMs
[30]
  PSMs: 122 PSMs
[31]
  PSMs: 2 PSMs
[32]
  PSMs: 2 PSMs
[33]
  PSMs: 17 PSMs
[34]
  PSMs: 3 PSMs
[35]
  PSMs: 2 PSMs
[36]
  PSMs: 3 PSMs
[37]
  PSMs: 3 PSMs
[38]
  PSMs: 24 PSMs
[39]
  PSMs: 7 PSMs
[40]
  PSMs: 3 PSMs
